According to the supplement of paper PMC7125110:
± gives the standard error. For some assays here: Variants at the floor of the assay were thinned out.

B1: glmS ribozyme (parent)
chain: AUAAAAGCGCCAGAACUACAGAAAUGUAGUUGACGAGGAGGAGGUUUAUCGAAUUUUCGGCGGAUGCCUCCAAA

Columns and labels:
Conditions in all cases: with glucosamine-6-phosphate
glucosamine-6-phosphate [1] = variants of: B1; assay: kcat; higher = faster cleavage; RNA array
Procedure, shortened: (§1)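 Glucosamine-6-phosphate in HEPES/KCl/Mg(OAc)2 buffer, at 40 μM to 10 mM, was flowed over barcoded ribozyme variants transcribed in situ by E. coli RNA polymerase on sequenced MiSeq chips. Tracking was through a hybridised Cy3 probe at 37 °C. kobs, kcat and KM came from exponential decay fits and weighted Michaelis–Menten fits of normalised per-tile medians.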

glucosamine-6-phosphate [2] = variants of: B1; assay: self-cleavage kobs at 160 uM GlcN6P; higher = faster cleavage; RNA array
Procedure, shortened: as §1

glucosamine-6-phosphate [3] = variants of: B1; assay: self-cleavage kobs at 640 uM GlcN6P; higher = faster cleavage; RNA array
Procedure, shortened: as §1

glucosamine-6-phosphate [4] = variants of: B1; assay: self-cleavage kobs at 2500 uM GlcN6P; higher = faster cleavage; RNA array
Procedure, shortened: as §1

glucosamine-6-phosphate [5] = variants of: B1; assay: self-cleavage kobs at 10000 uM GlcN6P; higher = faster cleavage; RNA array
Procedure, shortened: as §1

glucosamine-6-phosphate [6] = variants of: B1; assay: KM; higher = weaker cofactor use; RNA array
Procedure, shortened: as §1

glucosamine-6-phosphate [7] = variants of: B1; assay: self-cleavage kobs at 40 uM GlcN6P; higher = faster cleavage; RNA array
Procedure, shortened: as §1

Variant	kcat (glucosamine-6-phosphate [1]) [s⁻¹]	self-cleavage kobs at 160 uM GlcN6P (glucosamine-6-phosphate [2]) [s⁻¹]	self-cleavage kobs at 640 uM GlcN6P (glucosamine-6-phosphate [3]) [s⁻¹]	self-cleavage kobs at 2500 uM GlcN6P (glucosamine-6-phosphate [4]) [s⁻¹]	self-cleavage kobs at 10000 uM GlcN6P (glucosamine-6-phosphate [5]) [s⁻¹]	KM (glucosamine-6-phosphate [6]) [µM]	self-cleavage kobs at 40 uM GlcN6P (glucosamine-6-phosphate [7]) [s⁻¹]
C16G U46G	0.000671 ± 0.00023	5.87e-05 ± 2.1e-05	0.000167 ± 4e-05	0.000703 ± 0.00022	0.000514 ± 0.00016	–	–
A15U C16G	0.00121 ± 0.00041	8.8e-05 ± 1.9e-05	0.000169 ± 5.1e-05	0.000786 ± 0.0002	0.000952 ± 0.00022	2570 ± 1300	2.88e-05 ± 1.4e-05
C16G U30C	0.000111 ± 8.3e-06	–	5.29e-05 ± 9.6e-06	7.58e-05 ± 1.2e-05	0.000109 ± 1.3e-05	763 ± 200	–
C16U U30C	7.72e-05 ± 8.6e-06	3.52e-05 ± 1.7e-05	6.63e-05 ± 2.2e-05	5.88e-05 ± 8.5e-06	8.45e-05 ± 9.1e-06	–	< 1e-05
C16U U30A	0.003 ± 0.00083	0.000131 ± 2.6e-05	0.000648 ± 0.00011	0.00171 ± 0.00029	0.00242 ± 0.00027	2310 ± 910	7.15e-05 ± 7.9e-06
G29U C67A U69A	7.55e-05 ± 1.2e-05	–	5.78e-05 ± 2.8e-05	0.000106 ± 2.6e-05	6.88e-05 ± 1.3e-05	–	–
A15U G29A	0.00194 ± 0.00084	7.32e-05 ± 1.6e-05	0.000218 ± 4.3e-05	0.00039 ± 0.0001	0.00142 ± 0.0002	–	–
C16G U56A	0.00335 ± 0.00047	0.000189 ± 6.3e-05	0.000593 ± 0.00014	0.00135 ± 0.00026	0.00286 ± 0.00043	2810 ± 590	5.21e-05 ± 9.6e-06
G29C A39G	0.00594 ± 0.0022	0.000305 ± 6.8e-05	0.000768 ± 0.00012	0.00223 ± 0.00037	0.00525 ± 0.00064	–	0.000107 ± 1.2e-05
A15U U31G U47A	0.000799 ± 0.00019	–	0.000105 ± 2.5e-05	0.000221 ± 5.7e-05	0.000537 ± 8.1e-05	5260 ± 2100	–
G29U G32A	0.00151 ± 0.00013	0.000105 ± 2.4e-05	0.000328 ± 6.3e-05	0.000738 ± 0.00012	0.00128 ± 0.00016	2210 ± 350	3.81e-05 ± 1.5e-05
G29U G60A	< 1e-05	< 1e-05	< 1e-05	–	< 1e-05	–	< 1e-05
G29U C67U	0.000984 ± 0.0002	0.000126 ± 1.3e-05	0.000384 ± 5.4e-05	0.000575 ± 8.5e-05	0.0012 ± 0.00018	1050 ± 320	4.55e-05 ± 8.7e-06
G29A G63C	< 1e-05	–	–	< 1e-05	< 1e-05	–	< 1e-05
G29C A48C	1.23e-05 ± 3.5e-06	< 1e-05	–	–	–	–	< 1e-05
C16A U56A	0.0016 ± 0.00026	9.31e-05 ± 3e-05	0.000261 ± 7.2e-05	0.000618 ± 0.00011	0.00131 ± 0.0002	3180 ± 890	2.51e-05 ± 9.6e-06
U30G U46A G66C	0.000292 ± 0.00014	–	6.55e-05 ± 2.5e-05	0.00038 ± 8.8e-05	0.000218 ± 5.4e-05	–	–
U30G C58U	5.55e-05 ± 8.1e-06	–	–	–	4.54e-05 ± 1.6e-05	–	–
U30G C58A	0.000335 ± 5.6e-05	–	7.21e-05 ± 8.3e-06	0.000154 ± 1.8e-05	0.000293 ± 5e-05	2550 ± 710	–
U30A U49A C68A C71G	4.8e-05 ± 2.1e-05	–	7.12e-05 ± 2.8e-05	–	–	–	–
U31A C58G G62C A64C C67A	1.85e-05 ± 3.6e-06	–	–	–	–	–	–
C16G U47C	0.00027 ± 0.00013	–	0.000231 ± 7.9e-05	0.000192 ± 5.1e-05	–	–	–
G26U U65G	0.00661 ± 0.0013	0.00028 ± 0.00012	0.000733 ± 0.00016	0.00291 ± 0.0011	0.00449 ± 0.001	4570 ± 1200	6.93e-05 ± 3.2e-05
G29C U47C	0.000131 ± 7.3e-06	–	3.72e-05 ± 1.8e-05	7.73e-05 ± 1.5e-05	0.000112 ± 2.7e-05	1730 ± 250	–
G29U U55C	0.00826 ± 0.0027	0.000198 ± 7.2e-05	0.00112 ± 0.0002	0.00427 ± 0.0009	0.00588 ± 0.00079	3740 ± 1700	0.000123 ± 1.8e-05
C16A G66C	6.9e-05 ± 1.7e-05	–	–	–	2.41e-05 ± 1.1e-05	–	< 1e-05
C16A G66A	0.00167 ± 9.1e-05	6.8e-05 ± 3.1e-05	0.000223 ± 5e-05	0.000633 ± 0.00013	0.00118 ± 0.00018	4130 ± 370	–
G29U U47C	0.000228 ± 1.3e-05	4.21e-05 ± 1.6e-05	8.08e-05 ± 1.4e-05	0.00017 ± 2.9e-05	0.000206 ± 1.8e-05	1050 ± 180	–
U30G U56C	0.00111 ± 0.00035	7.46e-05 ± 1.8e-05	0.000359 ± 5.7e-05	0.000454 ± 8.9e-05	0.00109 ± 0.00017	–	–
